System: LPS-induced release of endogenous TNFα from human THP-1 macrophage cells
Assay: TNFα release (shedding) assay, functional screen of hybridoma supernatants
Assay type: cell-based
Details: supernatants of monoclonal 4H8 sub-clones; assay as in Example 5
Source text: After 14 days of culture, supernatants of hybridoma cells were collected and—instead of being selected for iRhom2 binding antibodies—were subjected to an ELISA-based functional screen for iRhom2 activity-neutralizing antibodies. Since the crucial role of iRhom2 in TACE-mediated release of tumor necrosis factor alpha (TNFα) from macrophages is very well established (McIlwein et al., 2012, Adrain et al., 2012, Siggs et al., 2012), the human TNF-alpha DuoSet ELISA (R&D Systems, USA) was employed to compare the lipopolysaccharide (LPS)-induced release of endogenous TNFα from human THP-1 macrophage cells in the presence and absence of all 5280 peptide immunization-derived hybridoma supernatants.
In brief, on day 1, Nunc black MaxiSorp® 96-well plates (Thermo Fisher Scientific, USA) were coated overnight with 100 μl per well of mouse anti-human TNFα capture antibody (provided as part of the DuoSet ELISA kit) at 4 μg/m1 TBS at 4° C. […] Using an infinite M1000 PRO (Tecan Group, Switzerland) microplate reader, the fluorescence of each well was collected at an excitation wavelength of 435 nm and an emission wavelength of 555 nm.
In brief, cells of the hybridoma population 4H8 were counted and the dilution factor to end up with an average of two cells per well of 96-well plates was calculated. […]

B1: 4H8-E3: Mouse IgM monoclonal antibody against the human iRhom2 juxtamembrane domain adjacent to TMD1; HC VD SEQ ID NO 33, LC VD SEQ ID NO 40 (antibody, V domains shown)
VH: EVQLQQSGPELVKPGASVKISCKASGYTFTDYYMNWVKQSHGKSLEWIGDINPNNGGTSYNQKFKGKATLTVDKSSNTAYMEFRSLTSEDSAVYYCARRGYYGVDYWGQGTTLTVSS
VL: NIVMTQSPKSMSMSVGERVTLNCKASENVGTYVSWYQQKPEQSPKLLIFGASNRYTGVPDRFIGSGFATDFTLTISSVQAEDLADYHCGQSYSYPYTFGGGTKLEIK
modifications: IgM constant regions; antibody sequence
  inhibitory effect of sub-clone supernatants on LPS-induced release of TNFα from THP-1 cells: significantly interfere

Source: US20220204610A1, “PROTEIN BINDERS FOR IRHOM2” (NEW YORK SOCIETY FOR THE RELIEF OF THE RUPTURED AND …, priority 2019, published 2022)
